The values below are quoted from earlier work in patent US10744082B2, “Compositions for treatment of xerostomia and for tooth treatment” (3 IN 1 DENTAL PLLC, priority 2013, dated 2020).

This series has as its system lean meat. The following applies: usual grade of papain.

B1: Papain (protein, UniProt P00784 134-345, looked up)
Papain: IPEYVDWRQKGAVTPVKNQGSCGSCWAFSAVVTIEGIIKIRTGNLNEYSEQELLDCDRRSYGCNGGYPWSALQLVAQYGIHYRNTYPYEGVQRYCRSREKGPYAAKTDGVRQVQPYNEGALLYSIANQPVSVVLEAAGKDFQLYRGGIFVGPCGNKVDHAVAAVGYGPNYILIKNSWGTGWGENGYIRIKRGTGNSYGVCGLYTSSFYPVKN
notes: Protease enzyme; white or grayish-white, slightly hygroscopic powder, designated USP
Take B1: the “potency: weight of lean meat digested” value is on record as ~35 times its weight.
